Experiment [1] deals with S2A5-L1^A (S2A5 with alanine substitution in light chain region 26-30C) (mouse | human). The experiment is described as follows: BLI.
The target in experiment [2] is GTV Gn head domain (residues 19-337) (Guertu virus (GTV), GenBank KT328592.1, UniProt A0A0S2Z2X2). Briefly: ELISA.

On to “SFTSV Gn head domain protein (residues 20-340, strain WCH97, genotype A) (domain or fragment)”, for which the fold decrease of binding affinity against WT S2A5 in experiment [1] was 11 fold.

B1: mAb B1G11 (mouse variable regions on human IgG1) (antibody, V domains shown)
VH: EVKLMESGGGLVQPGDSLRLSCAISGFTFSDYYMSWVRQPPGKALEWLGFIRNKAKGYTTEYSASVKGRFTISRDNSQSILYLQMNTLRAEDSATYYCARDYRYDDEYYYAMDYWGQGTSVTVSS
VL: GVVMTQTTSSLSASLGDRVTISCSASQGISNYLNWYQQKPDGTVKLLIYYTSILHSGVPSRFSGSGSGTDYSLTISNLEPEDIATYYCQQYSKFPRTFGGGTKLEIK
Regarding B1, the binding result in experiment [2] is listed as “binds”.

B2: mAb N1D10 (mouse variable regions on human IgG1) (antibody, V domains shown)
VH: EVKLVESGGGLVQPGGSLKLSCAASGFTFSTYTMSWVRQTPEKRLEWVAYISNGGGSTYYPDTVKGRFTISRDNAKNTLYLQMSSLNSEDTAMYYCARSYGNFDVWGAGTTVTVSS
VL: DVVMTQTPLSLPVSFGDQVSISCRSSQSLANSYGNTYLSWYLHKPGQSPQLLIYGISKRFSGVPDRFSGSGSGTDFTLKISTIKPEDLGMYYCLQGTHQPWTFGGGTKLEIK
For the molecule B2, in experiment [2], the binding result is listed as “binds”.

B3: mAb S2A5 (mouse variable regions on human IgG1) (antibody, V domains shown)
VH: EVQLQQSGPELVKPGASVKVSCKASGYSFSDDNMYWVKQSHGKSLEWIGYIDPDNGGTSYNQKFKGKATLTVDKSSSTAFMHLNSLTSEDSAVYYCAREDYYGSRAMDYWGQGTSVTVSS
VL: DIVLTQSPASLAVSLGQRATISCKASQSVDYAGDSYMNWYQQKPGQPPKLLIYAASNLESAIPARFSGSGSGTDFTLNIHPVQEEDAATYYCQQSYEDPRTFGGGTKLEIK
Regarding B3, in experiment [2], the binding result is “binds”.

Source of the values: paper PMC11327358 (Nature Communications, 2024).
